{"source": "paper PMC2289352", "molecular_target": "S1 triple mutant containing all three substitutions L108D, L112D, and V117D", "assay": "SEC"}
{"substance": "S1 triple mutant containing all three substitutions L108D, L112D, and V117D (domain or fragment)", "values": [{"measurement": "protein eluting in the void volume of Sephacryl S200 (self-association)", "result": "> 50", "unit": "%"}]}
